According to publication PMC3747075:

Target: human DNM1L GTPase-GED (GG) fusion protein (human) (UniProt O00429)
Assay: SEC; 60 µM protein incubated 30 min at 37°C with 2 mM GDP or GTP, 20 mM NaF and 2 mM AlCl3 (transition state mimic GDP/AlF4-); 20 mM Tris/HCl pH 8.0, 150 mM NaCl, 2 mM EGTA, 4 mM MgCl2, 1 mM DTT; Superdex S 75 HR 10/300; dimer at 9.5 ml, monomer at 11 ml

stoichiometry N: 2
Substance: human DNM1L GTPase-GED (GG) fusion protein (from UniProt O00429 1-325) (domain or fragment)
